{
  "source": "paper PMC7563477",
  "about": "“N-Terminal Segment of TvCyP2 Cyclophilin from Trichomonas vaginalis Is Involved in Self-Association, Membrane Interaction, and Subcellular Localization” (Biomolecules, 2020)",
  "binders": {"B1": {"name": "TvCyP2_(3–18) peptide (peptide)", "peptide": "AFFATRVISAPKVTKK", "notes": "residues 3-18 of TvCyP2 of Trichomonas vaginalis (N-terminal segment); source: synthetic peptide, HPLC-grade, bought: Yao-Hong Biotechnology"}},
  "target": "T1, T. vaginalis cyclophilin 2 (TvCyP2), recombinant with C-terminal His-tag (Trichomonas vaginalis, UniProt A2DLL4 1-186)",
  "T1 construct": "TvCyP2 cyclophilin of Trichomonas vaginalis, with its N-terminal segment; secondary structure is described up to residue 184; theoretical molecular weight 20.947 kDa; 15N-labelled for the NMR experiments; Cloned into pET-29b by NdeI and XhoI; also called TvCyP2_apo1; TvCyP2_apo2; source: E. coli BL21(DE3), purified (Q-sepharose flow-through, Ni-NTA; SEC superdex-75 for crystallization and …)",
  "test": "NMR titration; 2D 1H-15N HSQC of the 15N-labelled protein without and with unlabelled TvCyP2(3-18) peptide (molar ratio 1:5); 800 MHz, 310 K; 20 mM NaH2PO4, 50 mM NaCl, pH 6.0, 10% D2O",
  "settings": "both partners purified",
  "data": [
    {"binder": "B1", "values": [
      {"measurement": "binding result", "value": "binds"}
    ]}
  ]
}
